Test results published in article PMC5743070 (The Journal of Biological Chemistry, 2017).

Tests used:
TTD (UHRF1_121–286) [1] = target: T1, TTD (UHRF1_121–286) (Homo sapiens, UniProt Q96T88); experiment: (1H-15N) HSQC NMR titration of TTD; type: binding; settings: (1H-15N) HSQC spectra of TTD
T1 construct: UHRF1_121–286 corresponding to the TTD; made in house
T1 sequence (Q96T88 121-286): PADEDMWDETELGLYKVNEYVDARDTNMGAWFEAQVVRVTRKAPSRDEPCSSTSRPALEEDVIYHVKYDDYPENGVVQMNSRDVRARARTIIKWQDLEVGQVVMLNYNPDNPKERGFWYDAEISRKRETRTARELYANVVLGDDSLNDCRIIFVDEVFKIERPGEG
Excerpt: We designed a fragment library containing 2,040 compounds that was initially screened against isolated TTD (UHRF1_121–286) using a fluorescence polarization (FP) assay that tracked the displacement of a N-terminally tagged H3K9me3 peptide (H3K9me3(1–25)). From this screen, eight putative TTD-binding hits were identified. […] Because of limited commercial availability of the tricyclic amine, we focused only on BPC. The binding of this compound occurs close to (or within) the Arg^296-binding pocket; we observe significant perturbation of Trp^238 and Phe^278 resonances that form part of the pocket, and in Gly^236, which is directly adjacent to it (Fig. 4A and supplemental Fig. S5). We also see chemical shift changes in non-surface exposed residues that are close to or are in contact with the groove.
(§1) NMR samples were buffered in 20 mM sodium phosphate (pH 7.5), 150 mM NaCl, 5 mM DTT, 5 mM β-mercaptoethanol, 2 mM TCEP, and 10 μM ZnSO4. The protein concentration was between 200 and 300 μM for all samples. The data were collected at 25 °C on Bruker spectrometers equipped with cryoprobes and operating at 500, 600, or 800 MHz. The assignment of backbone TTD–PHD resonances was accomplished using the ABACUS method ([29]) for which standard backbone and ^15N-edited NOESY spectra were collected using ^15N/^13C/^2H- or ^15N/^13C-labeled protein. All 3D experiments were acquired using non-uniform sampling and processed using the software MDDGUI ([30]) or qMDD ([31]). ^15N-Labeled TTD–PHD was used to acquire ^15N T1 and T2 relaxation and ^1H-^15N heteronuclear NOE measurements ([32]) collected using standard Bruker pulse schemes in an interleaved manner. For T1 measurements, the variable delay was set to 0.1, 0.4, 0.8, 1.5, 2.0, 2.5, 3.5, and 5 s. For T2 measurements, the variable delay was set to 16, 32, 48, 64, 80, 96, 128, and 144 ms. The D1 was 3 s for all experiments. Reported values were the average from two measurements. All spectra were processed using NMRPipe ([33]) and analyzed with SPARKY ([34]).
Figure S5 (related to Fig. 4)
Binding of BPC in the groove of TTD. […]
labeled (at the N-terminus) H3K9me3(1-25) peptide, (B) ITC, and (C) DSF. (D) KD estimates of BPC bind-ing based on I211 and Y239 amide peak movement (where Δ(ppm) = ((ΔδHN)2 + (ΔδN/6.5)2 )1⁄2) in (1H-15N) HSQC spectra when the TTD is titrated with BPC. […]
as a function of TTD sequence resulting from BPC (blue) or PBR peptide (red) binding. (F) HSQC overlays […]
ment:protein), and PBR peptide ratios (bottom spectrum - from 1:1 to 5:1 peptide:protein). The protein con-centration was ~250 µM for all NMR experiments, and the DMSO concentration was 5% for NMR titrations […]
(§2) (1 picture or pasted object on this page, not shown here)

TTD–PHD (UHRF1_126–366) [2] = target: T2, TTD–PHD (UHRF1_126–366) (Homo sapiens, UniProt Q96T88); experiment: (1H-15N) TROSY NMR titration of TTD–PHD; type: binding
T2 construct: His tag (TEV-cleavable) (N); made in house
T2 sequence (Q96T88 126-366): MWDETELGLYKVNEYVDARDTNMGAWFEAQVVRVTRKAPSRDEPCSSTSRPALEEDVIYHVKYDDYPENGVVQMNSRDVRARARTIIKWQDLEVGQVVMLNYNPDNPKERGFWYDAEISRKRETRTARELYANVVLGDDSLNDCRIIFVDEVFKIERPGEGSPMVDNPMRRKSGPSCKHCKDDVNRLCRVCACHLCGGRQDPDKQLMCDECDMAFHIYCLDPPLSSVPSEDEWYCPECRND
Procedure: Exchange broadening is clearly observed for Arg^282, Gly^284, Asp^291, Asn^292, Met^294, and Ser^301 amide resonances at 1:3 protein/BPC ratios, with perturbations also seen with Gly^286 and Gly^299 (Fig. 4 and supplemental Fig. S6).
as §1

TTD–PHD (UHRF1_126–366) [3] = target: T2, TTD–PHD (UHRF1_126–366); experiment: ITC of H3 peptide binding to TTD–PHD
Procedure: A preliminary peptide injection of 0.06 μl was followed by subsequent 2-μl injections into the sample cell containing 167 μl of 50 μM TTD–PHD. Where indicated, 1.5 mM BPC or 1.5 mM PBR peptide was included in the injection syringe and sample cell. The reported KD and n values are based on the average from two measurements. For ITC measurements of TTD (UHRF1_121–286) interaction with BPC, the protein was buffered in 20 mM Tris (pH 7.4), 50 mM NaCl, and 5% DMSO. BPC was brought to a concentration of 2.5 mM and injected into the sample cell containing 40 μM protein. The data were acquired on a Nano ITC from TA Instruments at 25 °C and fitted with an independent-binding site model using NanoAnalyze software (v3.7.0).
ITC curves showing TTD-PHD binding to methylated (red) and unmethylated (black) H3 peptide.
as §2

TTD (UHRF1_121–286) [4] = target: T1, TTD (UHRF1_121–286); experiment: HSQC competition of BPC and linker peptide on TTD; type: binding; settings: BPC 2.4 mM, linker peptide 3.0 mM, 5% DMSO; I211, I212 and E281 resonances in HSQC
Procedure: as §1, with “([34]). […]” for “([34]).”
trated by the perturbation of I211, I212 and E281 resonances in HSQC spectra of the TTD in a competition assay. […]

binding site on TTD by amide peak movement (TTD (UHRF1_121–286) [1]) | effect on TTD–PHD conformation (TTD–PHD (UHRF1_126–366) [2]; Fig. 4) | increase of KD for H3K9me3 (effect of added ligand) (TTD–PHD (UHRF1_126–366) [3]; 1.5 mM BPC or PBR peptide in syringe and cell, vs apo TTD–PHD) [fold] | competition for the TTD groove (TTD (UHRF1_121–286) [4]) | Substance | effect on linker resonances of TTD–PHD (TTD–PHD (UHRF1_126–366) [2]; (1H-15N) TROSY, ~250 μM protein/750 μM ligand) | effect on TTD–PHD binding affinity for the histone peptide (TTD–PHD (UHRF1_126–366) [3]; 1.5 mM BPC (4% DMSO) or 1.5 mM PBR peptide, H3K9me3(1–15))
binding in the groove | promote open TTD–PHD conformations | ~5 |  | PBR peptide: 15-residue peptide corresponding to the PBR (UHRF1_643–657) (GKGKWKRKSAGGGPS; UniProt Q96T88 643-657, looked up, fragment) [reference compound] | strikingly similar peak broadening/perturbation pattern | reduces the TTD–PHD binding affinity for the histone peptide
 |  |  | compete directly for the TTD groove | linker peptide: linker peptide (corresponding to UHRF1286-300) (GSPMVDNPMRRKSGP; UniProt Q96T88 286-300, looked up, fragment) [reference compound] |  | 
